Assay results published in US20240132625A1 (KOREA ADVANCED INSTITUTE OF SCIENCE AND TECHNOLOGY, published 2024).

Legend:
[1] = target: Receptor-binding domain of the SARS-CoV-2 spike protein (biotinylated, Acrobio system) (SARS-CoV-2, UniProt P0DTC2 319-541); experiment: BLI
[2] = target: the molecule itself; experiment: homodimerisation; method not stated (FIG. 2)

B1: CV30 (antibody, V domains shown)
VH: EVQLVESGGGLIQPGGSLRLSCAASGVIVSSNYMSWVRQAPGKGLEWVSVIYSGGSTYYADSVKGRFTISRDNSKNTLYLQMNSLRAEDTAVYYCARDLDVSGGMDVWGQGTTVTVSS
VL: not shown
- Kd [1]: ≤ 0.01 nM

B2: homodimeric coiled-coil (HomoCC) (designed binder)
chain: DEEQRKVVEEDLKVLEHLRRVVERKEHLVRDAYEETFDDQQREVVREKLKVLEHLEKVIERDRHLSSRPGL
- Kd [2]: 7.6 µM
